What all share (conditions): both partners purified
Test [1] concerns the target T1, Clb2-Cdk1 complex, wild-type Clb2 (S. cerevisiae, UniProt P24869 187-491; P00546 1-298, phosphothreonine at 169 (by Cak1)).
T1 construct: Clb2 of S. cerevisiae, aa 187-491; Cdk1 (Cdc28) of S. cerevisiae, made as a GST-TEV-Cdk1 fusion; formed before Cks1 was added; also called wild-type Clb2-Cdk1; active Clb2-Cdk1; source: assembled from purified Clb2 (E. coli) and purified Cak1-phosphorylated Cdk1 (Sf9), desalted
Description: reconstitution of an active kinase complex by mixing; Clb2-Cdk1 combined with equimolar Cks1; no separate test of association.

Test [2] concerns the target T2, Clb2-Cdk1 complex, Clb2-pp mutant (S. cerevisiae, UniProt P24869 187-491; P00546 1-298, R366A | R379A | K383A, phosphothreonine at 169 (by Cak1)).
T2 construct: Clb2 of S. cerevisiae, aa 187-491, phosphate-pocket mutant; Cdk1 (Cdc28) of S. cerevisiae, made as a GST-TEV-Cdk1 fusion; formed before Cks1 was added; also called clb2-pp Clb2-Cdk1; PP mutant Clb2-Cdk1; source: assembled from purified Clb2-pp (E. coli) and purified Cak1-phosphorylated Cdk1 (Sf9), desalted
The test is described as above.

The target in test [3] is T3, Clb2 (aa 187-491), wild-type (S. cerevisiae, UniProt P24869 187-491).
T3 construct: Clb2, major mitotic B-type cyclin of S. cerevisiae, aa 187-491; also called wild-type Clb2; source: E. coli BL21(DE3) Star, pET28, purified (Ni-NTA, S200 gel filtration)
T3 sequence (looked up): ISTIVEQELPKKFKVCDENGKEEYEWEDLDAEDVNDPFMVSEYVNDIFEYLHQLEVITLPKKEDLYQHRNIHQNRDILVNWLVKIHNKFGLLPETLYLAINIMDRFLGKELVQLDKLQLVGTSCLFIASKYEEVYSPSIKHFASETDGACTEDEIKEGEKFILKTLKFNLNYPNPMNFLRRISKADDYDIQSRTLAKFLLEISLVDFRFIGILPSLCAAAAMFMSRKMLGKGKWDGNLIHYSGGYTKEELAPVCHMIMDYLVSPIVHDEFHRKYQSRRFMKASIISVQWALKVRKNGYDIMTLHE
As to the kind of experiment: reconstitution of an active kinase complex by mixing; 10.5 uM Cak1-phosphorylated Cdk1 and 10.5 uM Clb2, on ice 60 min, then desalted; the complex is known by its kinase activity only.

Test [4] concerns the target T4, Clb2-pp mutant (R366A, R379A, K383A), aa 187-491 (S. cerevisiae, UniProt P24869 187-491, R366A | R379A | K383A).
T4 construct: also called PP mutant Clb2; source: E. coli BL21(DE3) Star, pET28, purified (Ni-NTA, S200 gel filtration)
T4 sequence (looked up): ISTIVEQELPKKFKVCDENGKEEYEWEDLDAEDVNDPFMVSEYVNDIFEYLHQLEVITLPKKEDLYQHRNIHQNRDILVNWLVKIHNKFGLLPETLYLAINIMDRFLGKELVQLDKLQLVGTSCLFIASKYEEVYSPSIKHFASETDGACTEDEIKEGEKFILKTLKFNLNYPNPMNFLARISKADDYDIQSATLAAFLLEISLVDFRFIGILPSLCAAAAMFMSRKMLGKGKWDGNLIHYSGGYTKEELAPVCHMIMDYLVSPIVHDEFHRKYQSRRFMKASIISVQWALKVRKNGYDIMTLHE
The description is as above.

T2 sequence (P00546 whole entry, stated change not applied, the tested form may be a part, one chain of several): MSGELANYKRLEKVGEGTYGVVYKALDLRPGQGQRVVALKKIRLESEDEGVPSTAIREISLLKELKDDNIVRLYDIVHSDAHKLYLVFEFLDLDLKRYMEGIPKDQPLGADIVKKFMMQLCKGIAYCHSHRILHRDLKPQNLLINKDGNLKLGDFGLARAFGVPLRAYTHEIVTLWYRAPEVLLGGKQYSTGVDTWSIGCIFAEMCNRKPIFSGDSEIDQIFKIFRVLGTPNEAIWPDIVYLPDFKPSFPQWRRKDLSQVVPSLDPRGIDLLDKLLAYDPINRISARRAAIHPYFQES
T1 sequence (P00546 whole entry, the tested form may be a part, one chain of several): as the sequence (P00546 whole entry, stated change not applied, the tested form may be a part, one chain of several) above

B1: Cks1, wild-type (natural protein, S. cerevisiae, UniProt P20486 1-150, looked up)
chain: MYHHYHAFQGRKLTDQERARVLEFQDSIHYSPRYSDDNYEYRHVMLPKAMLKVIPSDYFNSEVGTLRILTEDEWRGLGITQSLGWEHYECHAPEPHILLFKRPLNYEAELRAATAAAQQQQQQQQQQQQQQQQHQTQSISNDMQVPPQIS
notes: Cks1 of S. cerevisiae; also called wild-type Cks1; source: E. coli BL21(DE3) Star, purified (boiling, ammonium sulfate, S200 gel filtration)
For the molecule B1, the binding result in test [1] and in test [2] was “binds” in each case.

B2: Cks1 mutant (R33E, S82E, R102A) (natural protein, S. cerevisiae, UniProt P20486 1-150, looked up)
chain: MYHHYHAFQGRKLTDQERARVLEFQDSIHYSPEYSDDNYEYRHVMLPKAMLKVIPSDYFNSEVGTLRILTEDEWRGLGITQELGWEHYECHAPEPHILLFKAPLNYEAELRAATAAAQQQQQQQQQQQQQQQQHQTQSISNDMQVPPQIS
notes: also called mutant Cks1; source: E. coli BL21(DE3) Star, purified (boiling, ammonium sulfate, S200 gel filtration)
As for B2, the binding result in test [1] and in test [2] was “binds” each time.

B3: Cdk1 (Cdc28), T169-phosphorylated (enzyme)
chain: not shown
modifications: phosphothreonine at 169 (by Cak1)
notes: Cdk1 (Cdc28) of S. cerevisiae, made as a GST-TEV-Cdk1 fusion; no TEV cleavage is described; the pooled fractions are called GST-Cdk1; also called GST-Cdk1; phosphorylated Cdk1; source: Sf9, baculovirus, purified (Glutathione Sepharose, S200 gel filtration); phosphorylated with purified Cak1
For B3, the binding result in test [3] and in test [4] was “binds” each time.

For the origin of these results see article PMC12062237, “Phosphate-binding pocket on cyclin B governs CDK substrate phosphorylation and mitotic timing” (Nature Communications, 2025).
